Experimental data from publication doi:10.1101/2022.11.30.518474 (bioRxiv, 2022).

Target: the molecule itself
Experiment: SEC; purified recombinant protein (40 μg in 50 μl) on a TOSOH G2000 SWXL column in hexokinase buffer (20 mM HEPES, 5 mM Mg acetate, 100 mM NaCl, 0.5 mM EDTA, 0.5 mM DTT) without glucose, no ATP, 1 mL/min

B1: Recombinant Hxk2, wild type, C-terminal 6-histidine tag, from E. coli (enzyme, S. cerevisiae, UniProt P04807 1-486, looked up)
chain: MVHLGPKKPQARKGSMADVPKELMQQIENFEKIFTVPTETLQAVTKHFISELEKGLSKKGGNIPMIPGWVMDFPTGKESGDFLAIDLGGTNLRVVLVKLGGDRTFDTTQSKYRLPDAMRTTQNPDELWEFIADSLKAFIDEQFPQGISEPIPLGFTFSFPASQNKINEGILQRWTKGFDIPNIENHDVVPMLQKQITKRNIPIEVVALINDTTGTLVASYYTDPETKMGVIFGTGVNGAYYDVCSDIEKLQGKLSDDIPPSAPMAINCEYGSFDNEHVVLPRTKYDITIDEESPRPGQQTFEKMSSGYYLGEILRLALMDMYKQGFIFKNQDLSKFDKPFVMDTSYPARIEEDPFENLEDTDDLFQNEFGINTTVQERKLIRRLSELIGARAARLSVCGIAAICQKRGYKTGHIAADGSVYNRYPGFKEKAANALKDIYGWTQTSLDDYPIKIVPAEDGSGAGAAVIAALAQKRIAEGKSVGIIGA
notes: Hexokinase 2 (Hxk2) of S. cerevisiae; also called WT Hxk2; wild-type Hxk2; source: E. coli (pET14b), purified (Ni-NTA)
For B1, the “stoichiometry N” value was 2.
